Source: article PMC5669352

Target: native mapacalcine (Cliona vastifica) (UniProt P86916)
Assay: MALDI-MS

Substance “native mapacalcine (from UniProt P86916 1-89) (natural protein)” has a stoichiometry N of 2.
